Common to all, as to assay: EMSA; no ATP, 5 mM Mg2+; 35 mM Tris-HCl pH 7.5, 1 mM DTT, 5 mM MgCl2, 60 mM KCl, 0.1 mg/ml BSA, no ATP, 30 min at 30 C; 5 nM ssDNA
What all share (settings): protein: recombinant; tags: N-terminal superfolder GFP; Ni-NTA purified; label: 5' Alexa647
(Mobility shift assays separate free from complexed probe on a gel.)

One data set addresses T1, GFP-Pif1 F723A (Saccharomyces cerevisiae, UniProt P07271 40-859, F723A).
T1 sequence: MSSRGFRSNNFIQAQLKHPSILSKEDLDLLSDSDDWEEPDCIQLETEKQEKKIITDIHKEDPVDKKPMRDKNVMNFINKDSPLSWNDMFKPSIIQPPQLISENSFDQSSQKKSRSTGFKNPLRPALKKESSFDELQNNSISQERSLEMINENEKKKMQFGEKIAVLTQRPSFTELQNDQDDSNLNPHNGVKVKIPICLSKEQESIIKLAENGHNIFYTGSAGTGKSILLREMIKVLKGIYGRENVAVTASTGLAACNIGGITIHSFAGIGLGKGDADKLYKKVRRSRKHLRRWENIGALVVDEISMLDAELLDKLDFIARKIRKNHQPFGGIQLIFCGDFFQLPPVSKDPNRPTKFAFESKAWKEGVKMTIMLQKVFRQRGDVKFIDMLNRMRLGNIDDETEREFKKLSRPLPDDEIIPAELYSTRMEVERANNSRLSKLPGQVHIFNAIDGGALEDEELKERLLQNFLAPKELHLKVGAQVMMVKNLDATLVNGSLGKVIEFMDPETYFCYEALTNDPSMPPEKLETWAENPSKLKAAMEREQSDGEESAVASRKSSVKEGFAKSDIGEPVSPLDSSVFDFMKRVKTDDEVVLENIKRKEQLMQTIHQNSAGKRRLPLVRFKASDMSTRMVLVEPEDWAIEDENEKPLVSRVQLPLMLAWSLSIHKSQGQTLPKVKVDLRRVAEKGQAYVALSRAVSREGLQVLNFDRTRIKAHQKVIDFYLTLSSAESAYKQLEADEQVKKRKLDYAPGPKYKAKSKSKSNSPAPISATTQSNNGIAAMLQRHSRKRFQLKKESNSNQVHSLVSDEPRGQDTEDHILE

In another data set the target is T2, GFP-Pif1 K264A (Saccharomyces cerevisiae, UniProt P07271 40-859, K264A).
T2 sequence: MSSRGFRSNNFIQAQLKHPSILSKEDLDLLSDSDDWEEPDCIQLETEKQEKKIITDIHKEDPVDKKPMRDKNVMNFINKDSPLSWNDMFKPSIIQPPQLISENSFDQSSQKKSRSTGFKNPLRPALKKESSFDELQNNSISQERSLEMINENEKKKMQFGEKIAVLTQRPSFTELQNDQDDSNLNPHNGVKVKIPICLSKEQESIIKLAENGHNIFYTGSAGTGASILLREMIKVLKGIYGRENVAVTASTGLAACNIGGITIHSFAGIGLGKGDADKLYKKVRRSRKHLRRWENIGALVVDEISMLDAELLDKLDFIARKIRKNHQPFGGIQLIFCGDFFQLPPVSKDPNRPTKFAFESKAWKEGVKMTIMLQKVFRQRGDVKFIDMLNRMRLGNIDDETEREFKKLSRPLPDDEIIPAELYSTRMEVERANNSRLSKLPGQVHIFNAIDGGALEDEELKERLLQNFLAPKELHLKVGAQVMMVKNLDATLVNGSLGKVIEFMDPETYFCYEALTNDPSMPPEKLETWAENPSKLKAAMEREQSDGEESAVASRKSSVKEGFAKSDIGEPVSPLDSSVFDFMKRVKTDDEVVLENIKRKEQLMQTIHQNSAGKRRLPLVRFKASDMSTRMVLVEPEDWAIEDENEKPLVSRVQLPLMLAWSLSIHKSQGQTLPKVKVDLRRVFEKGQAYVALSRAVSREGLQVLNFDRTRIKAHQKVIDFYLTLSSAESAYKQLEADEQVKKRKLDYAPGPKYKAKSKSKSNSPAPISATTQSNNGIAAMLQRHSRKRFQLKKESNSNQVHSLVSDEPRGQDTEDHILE

The next data set concerns the target T3, GFP-Pif1 G291P (Saccharomyces cerevisiae, UniProt P07271 40-859, G291P).
T3 sequence: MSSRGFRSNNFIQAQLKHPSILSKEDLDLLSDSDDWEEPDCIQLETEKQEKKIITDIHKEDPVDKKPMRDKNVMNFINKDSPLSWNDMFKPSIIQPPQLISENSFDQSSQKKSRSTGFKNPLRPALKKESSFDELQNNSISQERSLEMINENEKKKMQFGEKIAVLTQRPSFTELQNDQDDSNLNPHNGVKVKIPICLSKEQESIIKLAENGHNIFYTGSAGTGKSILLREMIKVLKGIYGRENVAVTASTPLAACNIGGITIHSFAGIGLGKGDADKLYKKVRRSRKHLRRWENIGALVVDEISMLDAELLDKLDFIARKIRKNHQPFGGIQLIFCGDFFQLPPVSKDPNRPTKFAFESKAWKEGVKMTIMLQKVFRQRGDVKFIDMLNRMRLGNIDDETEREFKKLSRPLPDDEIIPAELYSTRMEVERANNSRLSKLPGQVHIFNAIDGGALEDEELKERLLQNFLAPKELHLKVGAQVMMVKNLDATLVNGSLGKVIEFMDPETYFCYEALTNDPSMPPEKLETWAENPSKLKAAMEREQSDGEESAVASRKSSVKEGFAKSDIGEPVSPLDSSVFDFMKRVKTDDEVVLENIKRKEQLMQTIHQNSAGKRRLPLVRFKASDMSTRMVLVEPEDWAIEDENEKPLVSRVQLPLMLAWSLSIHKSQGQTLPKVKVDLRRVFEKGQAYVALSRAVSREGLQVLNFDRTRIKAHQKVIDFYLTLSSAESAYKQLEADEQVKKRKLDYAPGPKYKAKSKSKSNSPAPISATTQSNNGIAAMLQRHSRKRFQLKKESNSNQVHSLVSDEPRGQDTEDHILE

This is an account of results in publication PMC10279920, “Single-molecule visualization of Pif1 helicase translocation on single-stranded DNA” (The Journal of Biological Chemistry, 2023).

In the case of GCTAGCAGTAGCCAGCATCGAACGTACGATCGGTAACGTA (ssDNA) [40-nt ssDNA], the results for the Kd with GFP-Pif1 F723A, with GFP-Pif1 K264A and with GFP-Pif1 G291P were 55.6 ± 18.5 nM, 12.1 nM and 61.4 ± 15.8 nM, respectively.
